These are literature values, as cited in PMC11449392.

For the data set, the target named is Abl PRM (Homo sapiens) (UniProt P00519).
Sequence of UniProt P00519 (P00519 whole entry, looked up): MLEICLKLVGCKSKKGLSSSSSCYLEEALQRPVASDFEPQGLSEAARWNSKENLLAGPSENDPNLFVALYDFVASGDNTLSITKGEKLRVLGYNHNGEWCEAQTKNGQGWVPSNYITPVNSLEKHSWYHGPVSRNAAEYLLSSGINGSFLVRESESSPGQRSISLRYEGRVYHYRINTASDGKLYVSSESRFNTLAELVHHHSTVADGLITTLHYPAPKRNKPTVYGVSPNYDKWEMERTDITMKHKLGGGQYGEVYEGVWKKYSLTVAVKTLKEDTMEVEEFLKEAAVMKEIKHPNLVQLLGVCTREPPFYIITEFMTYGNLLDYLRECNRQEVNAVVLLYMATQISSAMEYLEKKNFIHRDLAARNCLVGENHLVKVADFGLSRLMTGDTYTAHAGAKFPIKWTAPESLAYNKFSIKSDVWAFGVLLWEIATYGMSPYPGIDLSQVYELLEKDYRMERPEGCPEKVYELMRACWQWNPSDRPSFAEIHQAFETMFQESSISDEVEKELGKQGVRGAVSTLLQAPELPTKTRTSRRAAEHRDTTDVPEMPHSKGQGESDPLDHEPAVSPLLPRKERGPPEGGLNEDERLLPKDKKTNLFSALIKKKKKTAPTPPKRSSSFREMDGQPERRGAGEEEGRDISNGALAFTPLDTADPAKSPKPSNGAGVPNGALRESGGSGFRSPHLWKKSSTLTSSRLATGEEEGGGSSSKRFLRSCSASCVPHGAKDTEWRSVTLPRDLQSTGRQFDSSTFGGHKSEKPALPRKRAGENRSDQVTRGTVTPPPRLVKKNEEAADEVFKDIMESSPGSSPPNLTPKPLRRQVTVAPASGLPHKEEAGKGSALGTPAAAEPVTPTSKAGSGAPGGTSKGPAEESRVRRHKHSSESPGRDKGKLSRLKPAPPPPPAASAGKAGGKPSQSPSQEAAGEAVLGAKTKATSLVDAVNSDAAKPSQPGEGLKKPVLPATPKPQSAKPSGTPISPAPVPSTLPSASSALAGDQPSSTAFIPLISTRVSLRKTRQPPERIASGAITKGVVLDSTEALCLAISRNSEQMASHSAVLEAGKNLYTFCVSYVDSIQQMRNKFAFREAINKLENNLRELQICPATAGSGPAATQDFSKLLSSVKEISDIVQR

Regarding “Nck second SH3 domain (from UniProt P16333)”, the equilibrium dissociation constant (Kd) was 350 µM.
